# Molecular target: cellular receptor used by the virus to infect target cells (ARPE 19 epithelial cells)
# Experiment: cell-based or functional assay
substance,measurement,value
"soluble HCMV pentameric complex (gH, gL, pUL128, pUL130, pUL131), purified, tag-free, produced in CHO-K1SV cells (from UniProt P12824 26-713; Q68672 32-278; P16837 23-171; F5HCP3 28-213; F5HET4 19-129)","IC50, inhibition of HCMV infection of ARPE 19 epithelial cells (complex pre-incubated with the target cells)",1.9 nM

# From patent publication US20170119874A1
